Reference: patent publication US9029508 (dated 2015)

B1: DVD458 DLL4 arm (antibody, V domains shown)
VH: QVQLVQSGAEVKKPGASVKISCKASGYSFTAYYIHWVKQAPGQGLEWIGYISSYNGATNYNQKFKGRVTFTTDTSTSTAYMELRSLRSDDTAVYYCARDYDYDVGMDYWGQGTLVTVSS
VL: DIVMTQSPDSLAVSLGERATISCRASESVDNYGISFMKWFQQKPGQPPKLLIYAASNQGSGVPDRFSGSGSGTDFTLTISSLQAEDVAVYYCQQSKEVPWTFGGGTKVEIKR
modifications: DVD-Ig inner
B2: DVD497 DLL4 arm (antibody, V domains shown)
VH: EVQLQQSGPELVKPGASVKMSCKASGYTFTSYVINWVKQKPGQGLEWIGLINPYNDGTKYNEKFKVKATLTSDKSSSTAYMELSSLTSEDSAVYYCASYYYGSRYYFDYWGQGTTLTVSS
VL: DIQMTQSSSYLSVSLGGRVTITCKASDHINNWLAWYQQKPGNAPRLLISGATSLETGVPSRFSGSGSGKDYTLSITSLQTEDVATYYCQQYWSIPLTFGAGTKLELKR
modifications: DVD-Ig outer
B3: DVD460 DLL4 arm (antibody, V domains shown)
VH: B1 VH
VL: B1 VL
modifications: DVD-Ig inner
B4: DVD519 DLL4 arm (antibody, V domains shown)
VH: EVQLQQSGPELEKPGASVKISCKASGYSFTGYNMNWVKQSNGKSLEWIGNIDPYFGGTNYNQKFKGKATLTVDKSSSTAYMQLKSLTSEDSAVYYCARNYDYDGGCFDYWGQGTTLTVSS
VL: QAVVTQESALTTSPGETVTLTCRSSTGAVTTSNYANWVQEKPDHLFTGLIGGTNNRAPGVPARFSGSLIGDKAALTITGAQTEDEAIYFCALWYSNHWVFGGGTKLTVLG
modifications: DVD-Ig outer
B5: DVD489 DLL4 arm (antibody, V domains shown)
VH: B2 VH
VL: B2 VL
modifications: DVD-Ig outer
B6: DVD486 DLL4 arm (antibody)
chain 1: EVQLVESGGGLVQPGGSLRLSCAASGFTFTDNWISWVRQAPGKGLEWVGYISPNSGFTYYADSVKGRFTISADTSKNTAYLQMNSLRAEDTAVYYCARDNFGGYFDYWGQGTLVTVSS
chain 2: DIQMTQSPSSLSASVGDRVTITCRASQDVSTAVAWYQQKPGKAPKLLIYSASFLYSGVPSRFSGSGSGTDFTLTISSLQPEDFATTYYCQQSYTGTVTFGQGTKVEIKR
modifications: DVD-Ig inner
B7: DVD485 DLL4 arm (antibody)
chain 1: B6 chain 1
chain 2: B6 chain 2
modifications: DVD-Ig outer
B8: DVD464 DLL4 arm (antibody, V domains shown)
VH: B1 VH
VL: B1 VL
modifications: DVD-Ig inner
B9: DVD467 DLL4 arm (antibody)
chain 1: B6 chain 1
chain 2: B6 chain 2
modifications: DVD-Ig outer
B10: DVD515 DLL4 arm (antibody, V domains shown)
VH: B4 VH
VL: B4 VL
modifications: DVD-Ig outer
B11: DVD468 DLL4 arm (antibody)
chain 1: B6 chain 1
chain 2: B6 chain 2
modifications: DVD-Ig inner
B12: DVD509 DLL4 arm (antibody, V domains shown)
VH: B2 VH
VL: B2 VL
modifications: DVD-Ig outer
B13: DVD521 DLL4 arm (antibody, V domains shown)
VH: B4 VH
VL: B4 VL
modifications: DVD-Ig outer
B14: DVD477 DLL4 arm (antibody)
chain 1: B6 chain 1
chain 2: B6 chain 2
modifications: DVD-Ig outer
B15: DVD529 DLL4 arm (antibody, V domains shown)
VH: B4 VH
VL: B4 VL
modifications: DVD-Ig outer
B16: DVD452 DLL4 arm (antibody, V domains shown)
VH: B1 VH
VL: B1 VL
modifications: DVD-Ig inner
B17: DVD484 DLL4 arm (antibody)
chain 1: B6 chain 1
chain 2: B6 chain 2
modifications: DVD-Ig inner
B18: DVD461 DLL4 arm (antibody, V domains shown)
VH: B1 VH
VL: B1 VL
modifications: DVD-Ig outer
B19: DVD512 DLL4 arm (antibody, V domains shown)
VH: B4 VH
VL: B4 VL
modifications: DVD-Ig inner
B20: DVD445 DLL4 arm (antibody, V domains shown)
VH: B1 VH
VL: B1 VL
modifications: DVD-Ig outer
B21: DVD470 DLL4 arm (antibody)
chain 1: B6 chain 1
chain 2: B6 chain 2
modifications: DVD-Ig inner
B22: DVD487 DLL4 arm (antibody, V domains shown)
VH: B2 VH
VL: B2 VL
modifications: DVD-Ig outer
B23: DVD449 DLL4 arm (antibody, V domains shown)
VH: B1 VH
VL: B1 VL
modifications: DVD-Ig outer

Biological target: DLL4 (human, UniProt Q9NR61)
Test: ELISA

Chain of DLL4 (Q9NR61 27-524): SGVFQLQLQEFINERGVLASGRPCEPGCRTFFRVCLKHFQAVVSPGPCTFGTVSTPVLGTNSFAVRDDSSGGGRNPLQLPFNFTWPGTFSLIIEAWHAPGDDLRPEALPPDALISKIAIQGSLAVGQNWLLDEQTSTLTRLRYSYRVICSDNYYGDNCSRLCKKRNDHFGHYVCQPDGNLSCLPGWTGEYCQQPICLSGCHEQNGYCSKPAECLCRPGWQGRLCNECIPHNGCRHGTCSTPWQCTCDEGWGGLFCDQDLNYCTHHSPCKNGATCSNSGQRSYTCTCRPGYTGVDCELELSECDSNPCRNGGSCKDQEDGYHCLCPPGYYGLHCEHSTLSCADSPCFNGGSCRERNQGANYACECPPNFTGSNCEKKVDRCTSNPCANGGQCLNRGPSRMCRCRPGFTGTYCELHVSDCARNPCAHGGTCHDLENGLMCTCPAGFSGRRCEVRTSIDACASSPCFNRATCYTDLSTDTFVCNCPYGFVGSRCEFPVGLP

Going from B1 to B2, the EC50 falls from 1.54 nM to 0.53 nM (2.9-fold). The second is the more potent here.

First: B3
Second: B4
The EC50 of the first is 2.4-fold lower: 0.64 nM for the first, 1.53 nM for the second.

B5 and B6 are within 1.5-fold of each other in EC50: 0.62 nM for the first, 0.59 nM for the second.

Going from B7 to B8, the EC50 falls from 1.41 nM to 0.8 nM (1.8-fold).

Going from B9 to B10, the EC50 falls from 0.54 nM to 0.2 nM (2.7-fold). The second is the more potent here.

Going from B11 to B12, the EC50 falls from 2.28 nM to 0.21 nM (11-fold).

Compared with B13, B14 is 2.7-fold higher in EC50: 0.26 nM for the first, 0.69 nM for the second.

First: B15
Second: B16
The EC50 of the first is 3.4-fold lower: 0.1 nM for the first, 0.34 nM for the second.

Compared with B17, B18 is 3.4-fold lower in EC50: 1.75 nM for the first, 0.52 nM for the second. The second is the more potent here.

Compared with B19, B20 is 10-fold lower in EC50: 1.71 nM for the first, 0.17 nM for the second.

B21 and B22 are within 1.5-fold of each other in EC50: 0.19 nM for the first, 0.14 nM for the second.

With B23 the EC50 was 0.36 nM.
